Consider two proteins from patent US20060287320A1, “Preparation of thioarabinofuranosyl compounds and use thereof” (Southern Research Institute, priority 1998, published 2006).

What all share (experiment): purified protein, by the assay type
Substrate in data set [1]: Nc1ccn([C@@H]2S[C@H](CO)[C@@H](O)[C@@H]2O)c(=O)n1
Substrate in data set [2]: Nc1ccn([C@H]2C[C@H](O)[C@@H](CO)O2)c(=O)n1
The settings on record: other: dCyd deaminase activity from human placenta, pH 7.4, mean and standard deviation from 3 experiments.

Substrate in data set [3]: Nc1ccn([C@H]2C[C@H](O)[C@@H](CO)O2)c(=S)n1
The settings on record: other: dCyd deaminase activity from human placenta, pH 7.4, mean and standard deviation from 3 experiments.

Setting [4] is: other: dCyd deaminase activity from human placenta, pH 7.4, mean and standard deviation from 3 experiments.

By Km is commonly meant the concentration of substrate that gives half-maximal velocity. What is called Vmax is the top rate of the reaction or transport when substrate is in excess.

B1: dCyd Deaminase Activity Isolated from Human Placenta (Homo sapiens) (protein)
chain: MAQKRPACTLKPECVQQLLVCSQEAKKSAYCPYSHFPVGAALLTQEGRIFKGCNIENACYPLGICAERTAIQKAVSEGYKDFRAIAIASDMQDDFISPCGACRQVMREFGTNWPVYMTKPDGTYIVMTVQELLPSSFGPEDLQKTQ
B1: the Km came to 2944 ± 1023 µM in data set [1] (setting [4]), 23 ± 2.7 µM in data set [2] and 111 ± 77 µM in data set [3]. The Vmax in data set [1] (setting [4]) was determined as 2.1e-05 µmol/min/mg; in data set [2] it was 1.3e-05 µmol/min/mg; in data set [3], 3.7e-05 µmol/min/mg.

B2: cytidine deaminase (Homo sapiens) (protein)
chain: B1 chain
For the protein B2, the Km in data set [1] (other: cytidine deaminase, radioactive substrates) was 2570 µM.
